Paper PMC5589848, “BMP-2 induced Dspp transcription is mediated by Dlx3/Osx signaling pathway in odontoblasts”

Biological target: Dlx3 (recombinant) (UniProt O60479 1-287)
Experiment: EMSA; anti-Dlx3 supershift; cold competitor 100x; EMSA as described previously (binding buffer not given); 5% native polyacrylamide gel in 1x TBE; 100-fold molar excess of unlabeled competitor
Conditions: protein: recombinant; label: 32P; blunt

Chain of Dlx3 (recombinant) (O60479 whole entry): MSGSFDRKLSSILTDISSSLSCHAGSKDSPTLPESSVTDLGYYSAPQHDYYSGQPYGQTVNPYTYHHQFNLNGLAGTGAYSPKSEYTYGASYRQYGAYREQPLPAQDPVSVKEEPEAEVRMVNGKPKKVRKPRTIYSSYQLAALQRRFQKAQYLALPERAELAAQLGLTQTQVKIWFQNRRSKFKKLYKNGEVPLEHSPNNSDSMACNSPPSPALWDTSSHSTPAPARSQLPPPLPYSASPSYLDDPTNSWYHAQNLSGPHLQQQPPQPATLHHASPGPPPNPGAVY

Binder | binding result
Dlx3I Oligo (dsDNA) DNA 1: GAGCTATTTAATTAAGTGAAA DNA 2: TTTCACTTAATTAAATAGCTC | binds
Dlx3II Oligo (dsDNA) DNA 1: GTTGAGAAAATTATCAAACTGA DNA 2: TCAGTTTGATAATTTTCTCAAC | binds
